Experimental data reported in patent publication US9791436 (UNIVERSITY OF QUEENSLAND, dated 2017).

Molecular target: PSA (prostate specific antigen) (UniProt P07288 25-261)
Assay: cell-based or functional assay

Chain of PSA (prostate specific antigen) (P07288 25-261 limits assumed): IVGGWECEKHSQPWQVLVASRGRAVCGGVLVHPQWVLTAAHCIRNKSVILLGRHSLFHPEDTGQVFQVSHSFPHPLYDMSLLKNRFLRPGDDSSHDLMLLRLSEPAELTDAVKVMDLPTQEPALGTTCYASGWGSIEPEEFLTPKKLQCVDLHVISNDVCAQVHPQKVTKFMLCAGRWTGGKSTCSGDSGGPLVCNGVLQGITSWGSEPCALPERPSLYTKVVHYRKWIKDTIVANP

B1: H6-68-AP-PSA-VHH (other)
chain: SSGSKALLKGVRDFNPISACVCLLENSSDGHSERLFGIGFGPYIIANQHLFRRNNGELTIKTMHGEFKVKNSTQLQMKPVEGRDIIVIKMAKDFPPFPQKLKFRQPTIKDRVCMVSTNFQQKSVSSLVSESSHIVHKEDTSFWQHWITTKDGQCGSPLVSIIDGNILGIHSLTHTTNGSNYFVEFPEKFVATYLDAADGWCKNWKFNADKISWGSFILWEDAPGGEHSSKLQSGAGREYVRFAPGGSGGSGGSGGSGGSGGDVQLQESGGGSVQAGGSLRLSCVASGWIYIPPCMAWFRQAPGKERERVATINPSGRTYYADSTKGRFRISQDNVKRTLYLYMNSLKPEDTATYYCAADDGTCPRMEFDDWGQGTQVTVSSGGSHHHHHH
Question: B1 was tested. Which “sensitivity of the PSA biosensor assay” value did it give?
Answer: The value was 2 fold better than the N-terminal VHH configuration.
